{
  "source": "paper PMC5028025",
  "key": {"[1]": {"molecular_target": "luciferase [luciferase: P08659]"}, "malate dehydrogenase": {"molecular_target": "malate dehydrogenase (UniProt P00346)", "sequence (P00346 25-338)": "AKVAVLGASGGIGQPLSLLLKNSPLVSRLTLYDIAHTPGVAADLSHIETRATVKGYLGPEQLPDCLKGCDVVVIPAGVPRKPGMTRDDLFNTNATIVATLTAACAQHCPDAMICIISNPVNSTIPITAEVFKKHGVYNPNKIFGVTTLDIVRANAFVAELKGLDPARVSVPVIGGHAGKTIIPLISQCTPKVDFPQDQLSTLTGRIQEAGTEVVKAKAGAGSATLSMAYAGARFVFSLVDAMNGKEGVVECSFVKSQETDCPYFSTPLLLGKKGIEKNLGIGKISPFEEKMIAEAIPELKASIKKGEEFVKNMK"}, "citrate synthase [2]": {"molecular_target": "citrate synthase (UniProt P00889)", "sequence (P00889 28-464)": "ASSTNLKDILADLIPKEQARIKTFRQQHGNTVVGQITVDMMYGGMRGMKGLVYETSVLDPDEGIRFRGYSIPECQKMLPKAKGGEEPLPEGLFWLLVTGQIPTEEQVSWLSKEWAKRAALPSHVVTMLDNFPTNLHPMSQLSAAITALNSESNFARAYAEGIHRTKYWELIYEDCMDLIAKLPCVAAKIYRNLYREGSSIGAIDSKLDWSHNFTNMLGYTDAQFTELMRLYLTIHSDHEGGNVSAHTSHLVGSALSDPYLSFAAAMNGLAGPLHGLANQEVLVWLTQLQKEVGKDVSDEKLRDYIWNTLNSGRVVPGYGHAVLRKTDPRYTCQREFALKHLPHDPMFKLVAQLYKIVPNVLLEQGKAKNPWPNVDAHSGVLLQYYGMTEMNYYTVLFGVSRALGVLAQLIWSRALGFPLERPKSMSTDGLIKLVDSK"}, "[3]": {"molecular_target": "Synechococcus sp. phage S-ShM2 18 kDa small heat shock protein (HspSP-ShM2) (cyanophage S-ShM2 (Synechococcus sp. phage))", "experiment": "SEC; Superdex 200 Increase 10/300 GL, TEN buffer (50 mM Tris-HCl pH 8.0, 0.1 mM EDTA, 150 mM NaCl) without detergent, room temperature, 0.5 ml/min; HspSP-ShM2 alone at 30 and 60 uM (the ~200 kDa species only at 60 uM); masses from a standard curve"}, "citrate synthase [4]": {"molecular_target": "citrate synthase (UniProt P00889)", "remark": "listed apart in the source"}},
  "data": [
    {"substance": "Synechococcus sp. phage S-ShM2 18 kDa small heat shock protein (HspSP-ShM2) (natural protein)", "values": [
      {"measurement": "percent of heat-induced aggregation of Luc (light scattering at 320 nm, 30 min at 42°C, Luc alone = 100%) at 6:1 and 12:1 HspSP-ShM2:Luc (45.8 and 6.4%)", "setting": "[1]", "result": 45.8, "unit": "%"},
      {"measurement": "percent of heat-induced aggregation of MDH (light scattering at 320 nm, 90 min at 45°C, MDH alone = 100%) at 6:1 and 12:1 HspSP-ShM2:MDH (26.9 and 6.5%)", "setting": "malate dehydrogenase", "result": 26.9, "unit": "%"},
      {"measurement": "percent of heat-induced aggregation of CS (light scattering at 320 nm, 90 min at 45°C, CS alone = 100%) at 5:1 and 10:1 HspSP-ShM2:CS (41.6 and 8.17%)", "setting": "citrate synthase [2]", "result": 41.6, "unit": "%"},
      {"measurement": "stoichiometry N", "setting": "[3]", "result": 12},
      {"measurement": "decrease of the ability to prevent heat-induced aggregation of CS in the presence of 0.23 mM Triton X-100, at 5:1 and 10:1 HspSP-ShM2:CS (20% and 12%)", "setting": "citrate synthase [4]", "result": 20, "unit": "%"}
    ]}
  ]
}
